Experimental data as given in the supplement of paper PMC11780869.

Tested on: Bacillus subtilis
Assay: cleaved RNA product abundance (RNA/gDNA barcode ratio) relative to median wild-type variant (ratio to wild type); higher = more accumulation of the downstream cleavage product
Settings: cleavage site: cggR-gapA (positions -7 to +36 mutated)
Outline: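 In LB at 37°C, B. subtilis cultures went from OD600 0.0003 to 0.3. Their chromosomes held barcoded reporter mRNAs, truncated aprE or tetM, with RNase Y cleavage-site windows mutagenized via oligos at a 9% error rate. Cleaved RNA, chosen by gel, was reverse transcribed and barcode-sequenced alongside genomic DNA barcodes with UMI collapsing, giving a per-construct RNA:gDNA ratio scaled to the median construct with the unmutated site. This scaled ratio is termed cleaved product abundance.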

[1] = experiment (reporter, strain, medium): exp 4a: truncated aprE reporter, strain BJT201 with 2% xylose (RNase J1 expressed)
[2] = experiment (reporter, strain, medium): exp 2b: truncated aprE reporter, strain BJT200
[3] = experiment (reporter, strain, medium): exp 6: tetM reporter, strain 168

| Sequence | cleaved RNA product abundance [1] | cleaved RNA product abundance [2] | cleaved RNA product abundance [3] |
| --- | --- | --- | --- |
| ACAGACGAAGGAGCCGCAAAGAAGTTATTAAGGGATGAATAACCCTTCAATATAAATATCTCTCACTTATTTAAA | 0.346 | – | – |
| ACAGACGAAGGAGCCGCAAAGAAGTTATTAAGGGATGAATAACCTCTCAATATAAATATCTCTCACTTATTTAAA | 0.151 | – | – |
| ACAGACGAAGGAGCCGCAAAGAAGTTATTAAGGGATGAATAACTCCTCAATATAAATATCTCTCACTTATTTAAA | 0.149 | 0.14 | – |
| ACAGACGAAGGAGCCGCAAAGAAGTTATTAAGGGATGAATAAGCCCTAAATATAAATATCTCTCACTTATTTAAA | 0.528 | 0.342 | – |
| ACAGACGAAGGAGCCGCAAAGAAGTTATTAAGGGATGAATAAGCCCTCAAAATAAATATCTCTCACTTATTTAAA | 0.261 | – | – |
| ACAGACGAAGGAGCCGCAAAGAAGTTATTAAGGGATGAATAAGCCCTCAAGATAAATATCTCTCACTTATTTAAA | 0.176 | – | – |
| ACAGACGAAGGAGCCGCAAAGAAGTTATTAAGGGATGAATAAGCCCTCAATATAAATAGCTCTCACTTATTTAAA | 0.406 | – | – |
| ACAGACGAAGGAGCCGCAAAGAAGTTATTAAGGGATGAATAAGCCCTCAATATAAATATCTCTCACTTATTTAAA | 0.634 | 0.683 | 0.775 |
| ACAGACGAAGGAGCCGCAAAGAAGTTATTAAGGGATGAATAAGCCTTCAATATAAATATCTCTCACTTATTTAAA | 0.171 | – | – |
| ACAGACGAAGGAGCCGCAAAGAAGTTATTAAGGGATGAATAATAACTCAATATAAATATCTCTCACTTATTTAAA | 0.128 | 0.0902 | – |
| ACAGACGAAGGAGCCGCAAAGAAGTTATTAAGGGATGAATAATACATCAATATAAATATCTCTCACTTATTTAAA | 0.0848 | – | – |
| ACAGACGAAGGAGCCGCAAAGAAGTTATTAAGGGATGAATAATACCACAATATAAATATCTCTCACTTATTTAAA | 0.0911 | 0.0894 | – |
| ACAGACGAAGGAGCCGCAAAGAAGTTATTAAGGGATGAATAATACCCCAATATAAATATCTCTCACTTATTTAAA | 0.149 | – | – |
| ACAGACGAAGGAGCCGCAAAGAAGTTATTAAGGGATGAATAATACCTAAATATAAATATCTCTCACTTATTTAAA | 0.132 | 0.12 | – |
| ACAGACGAAGGAGCCGCAAAGAAGTTATTAAGGGATGAATAATACCTCAAAATAAATATCTCTCACTTATTTAAA | 0.155 | – | – |
| ACAGACGAAGGAGCCGCAAAGAAGTTATTAAGGGATGAATAATACCTCAAGATAAATATCTCTCACTTATTTAAA | 0.124 | 0.102 | – |
| ACAGACGAAGGAGCCGCAAAGAAGTTATTAAGGGATGAATAATACCTCAATACAAATATCTCTCACTTATTTAAA | 0.0658 | – | – |
| ACAGACGAAGGAGCCGCAAAGAAGTTATTAAGGGATGAATAATACCTCAATATAAAAATCTCTCACTTATTTAAA | 0.179 | 0.144 | – |
| ACAGACGAAGGAGCCGCAAAGAAGTTATTAAGGGATGAATAATACCTCAATATAAACATCTCTCACTTATTTAAA | 0.108 | – | – |
| ACAGACGAAGGAGCCGCAAAGAAGTTATTAAGGGATGAATAATACCTCAATATAAATAACTCTCACTTATTTAAA | 0.0774 | 0.144 | – |

| Sequence | cleaved RNA product abundance [1] | cleaved RNA product abundance [2] | cleaved RNA product abundance [3] |
| --- | --- | --- | --- |
| ACAGACGAAGGAGCCGCAAAGAAGTTATTAAGGGATGAATAATACCTCAATATAAATACCTCTCACTTATTTAAA | 0.162 | – | – |
| ACAGACGAAGGAGCCGCAAAGAAGTTATTAAGGGATGAATAATACCTCAATATAAATATCTCTCACTTATTAAAG | 0.148 | – | – |
| ACAGACGAAGGAGCCGCAAAGAAGTTATTAAGGGATGAATAATACCTCAATATAAATATCTCTCACTTATTTAAA | 0.152 | 0.117 | 0.151 |
| ACAGACGAAGGAGCCGCAAAGAAGTTATTAAGGGATGAATAATACCTCAATATAAATTTCTCTCACTTATTTAAA | 0.15 | – | – |
| ACAGACGAAGGAGCCGCAAAGAAGTTATTAAGGGATGAATAATACCTCAATATAATTATCTCTCACTTATTTAAA | 0.165 | – | – |
| ACAGACGAAGGAGCCGCAAAGAAGTTATTAAGGGATGAATAATACCTCAATATACATATCTCTCACTTATTTAAA | 0.123 | – | – |
| ACAGACGAAGGAGCCGCAAAGAAGTTATTAAGGGATGAATAATACCTCAATATAGATATCTCTCACTTATTTAAA | 0.147 | – | – |
| ACAGACGAAGGAGCCGCAAAGAAGTTATTAAGGGATGAATAATACCTCAATATATATATCTCTCACTTATTTAAA | 0.123 | – | – |
| ACAGACGAAGGAGCCGCAAAGAAGTTATTAAGGGATGAATAATACCTCAATATTAATATCTCTCACTTATTTAAA | 0.0425 | 0.0803 | 0.0694 |
| ACAGACGAAGGAGCCGCAAAGAAGTTATTAAGGGATGAATAATACCTCAATTTAAATATCTCTCACTTATTTAAA | 0.0904 | 0.0845 | – |
| ACAGACGAAGGAGCCGCAAAGAAGTTATTAAGGGATGAATAATACCTCATTATAAATATCTCTCACTTATTTAAA | 0.117 | – | – |
| ACAGACGAAGGAGCCGCAAAGAAGTTATTAAGGGATGAATAATACCTCCATATAAATATCTCTCACTTATTTAAA | 0.092 | 0.069 | – |
| ACAGACGAAGGAGCCGCAAAGAAGTTATTAAGGGATGAATAATACCTCGATATAAATATCTCTCACTTATTTAAA | 0.103 | 0.0828 | – |
| ACAGACGAAGGAGCCGCAAAGAAGTTATTAAGGGATGAATAATACCTCTATATAAATATCTCTCACTTATTTAAA | 0.156 | – | – |
| ACAGACGAAGGAGCCGCAAAGAAGTTATTAAGGGATGAATAATACCTGAATATAAATATCTCTCACTTATTTAAA | 0.107 | 0.093 | – |
| ACAGACGAAGGAGCCGCAAAGAAGTTATTAAGGGATGAATAATACCTTAATATAAATATCTCTCACTTATTTAAA | 0.424 | – | – |
| ACAGACGAAGGAGCCGCAAAGAAGTTATTAAGGGATGAATAATACGTCAATATAAATATCTCTCACTTATTTAAA | 0.0816 | 0.0926 | – |
| ACAGACGAAGGAGCCGCAAAGAAGTTATTAAGGGATGAATAATACTTCAATATAAATATCTCTCACTTATTTAAA | 0.111 | 0.094 | – |
| ACAGACGAAGGAGCCGCAAAGAAGTTATTAAGGGATGAATAATAGCTCAATATAAATATCTCTCACTTATTTAAA | 0.13 | – | – |
| ACAGACGAAGGAGCCGCAAAGAAGTTATTAAGGGATGAATAATATCTCAATATAAATATCTCTCACTTATTTAAA | 0.116 | 0.0986 | – |

| Sequence | cleaved RNA product abundance [1] | cleaved RNA product abundance [2] | cleaved RNA product abundance [3] |
| --- | --- | --- | --- |
| ACAGACGAAGGAGCCGCAAAGAAGTTATTAAGGGATGAATAATCAATCAATATAAATATCTCTCACTTATTTAAA | 0.107 | 0.13 | – |
| ACAGACGAAGGAGCCGCAAAGAAGTTATTAAGGGATGAATAATCACACAATATAAATATCTCTCACTTATTTAAA | 0.142 | 0.114 | – |
| ACAGACGAAGGAGCCGCAAAGAAGTTATTAAGGGATGAATAATCACCCAATATAAATATCTCTCACTTATTTAAA | 0.129 | – | – |
| ACAGACGAAGGAGCCGCAAAGAAGTTATTAAGGGATGAATAATCACTAAATATAAATATCTCTCACTTATTTAAA | 0.142 | – | – |
| ACAGACGAAGGAGCCGCAAAGAAGTTATTAAGGGATGAATAATCACTCAAAATAAATATCTCTCACTTATTTAAA | 0.122 | 0.0846 | – |
| ACAGACGAAGGAGCCGCAAAGAAGTTATTAAGGGATGAATAATCACTCAACATAAATATCTCTCACTTATTTAAA | 0.123 | – | – |
| ACAGACGAAGGAGCCGCAAAGAAGTTATTAAGGGATGAATAATCACTCAAGATAAATATCTCTCACTTATTTAAA | – | 0.0892 | – |
| ACAGACGAAGGAGCCGCAAAGAAGTTATTAAGGGATGAATAATCACTCAATAAAAATATCTCTCACTTATTTAAA | 0.0861 | – | – |
| ACAGACGAAGGAGCCGCAAAGAAGTTATTAAGGGATGAATAATCACTCAATATAAAAATCTCTCACTTATTTAAA | 0.136 | – | – |
| ACAGACGAAGGAGCCGCAAAGAAGTTATTAAGGGATGAATAATCACTCAATATAAAGATCTCTCACTTATTTAAA | 0.0885 | – | – |
| ACAGACGAAGGAGCCGCAAAGAAGTTATTAAGGGATGAATAATCACTCAATATAAATACCTCTCACTTATTTAAA | 0.061 | – | – |
| ACAGACGAAGGAGCCGCAAAGAAGTTATTAAGGGATGAATAATCACTCAATATAAATAGCTCTCACTTATTTAAA | 0.101 | – | – |
| ACAGACGAAGGAGCCGCAAAGAAGTTATTAAGGGATGAATAATCACTCAATATAAATATCTCTCACTTATTTAAA | 0.14 | 0.111 | 0.0875 |
| ACAGACGAAGGAGCCGCAAAGAAGTTATTAAGGGATGAATAATCACTCAATATAAATTTCTCTCACTTATTTAAA | 0.112 | – | – |
| ACAGACGAAGGAGCCGCAAAGAAGTTATTAAGGGATGAATAATCACTCAATATAATTATCTCTCACTTATTTAAA | 0.0768 | – | – |
| ACAGACGAAGGAGCCGCAAAGAAGTTATTAAGGGATGAATAATCACTCAATATACATATCTCTCACTTATTTAAA | 0.109 | – | – |
| ACAGACGAAGGAGCCGCAAAGAAGTTATTAAGGGATGAATAATCACTCAATATAGATATCTCTCACTTATTTAAA | 0.116 | 0.143 | – |
| ACAGACGAAGGAGCCGCAAAGAAGTTATTAAGGGATGAATAATCACTCAATATATATATCTCTCACTTATTTAAA | 0.132 | – | – |
| ACAGACGAAGGAGCCGCAAAGAAGTTATTAAGGGATGAATAATCACTCAATATTAATATCTCTCACTTATTTAAA | 0.0358 | – | – |
